Consider 26 molecules from US20260098059A1 (ENDOMET BIOSCIENCES, published 2026).

Values joined by “and” are separate entries in the source; they are usually repeats but may differ in a detail not shown here. Equal entries are not always repeated. *1 amine or outer side, *2 acyl side, *3 side chain or, on linkers, in order; H or OH if unused. [ ]: non-standard residue; d: D form. αMeW = C[C@](N)(Cc1c[nH]c2ccccc12)C(=O)O; Cys(Me) = CSC[C@H](N[*:1])C(=O)[*:2]; αMeF = C[C@](N)(Cc1ccccc1)C(=O)O; 2Pal = N[C@@H](Cc1ccccn1)C(=O)O; αMeS = C[C@](N)(CO)C(=O)O A value given as a limit tells only on which side of the number the result lay.

First the molecules themselves.
B1: SEQ ID NO: 128 (peptide)
peptide: H-MWILIS[αMeF]WG-OH
B2: SEQ ID NO: 207 (peptide)
peptide: KWFLICAWD
modifications: cyclo-H2N-K(G*)WFLICAWD*-COOH
B3: SEQ ID NO: 188 (peptide)
peptide: KWILISAWE
HELM: PEPTIDE1{[ac].K.W.I.L.I.S.A.W.E}$PEPTIDE1,PEPTIDE1,2:R3-10:R3$$$V2.0
SMILES: CC[C@H](C)[C@@H]1NC(=O)[C@H](CC(C)C)NC(=O)[C@H]([C@@H](C)CC)NC(=O)[C@H](Cc2c[nH]c3ccccc23)NC(=O)[C@@H](NC(C)=O)CCCCNC(=O)CC[C@@H](C(=O)O)NC(=O)[C@H](Cc2c[nH]c3ccccc23)NC(=O)[C@H](C)NC(=O)[C@H](CO)NC1=O
B4: SEQ ID NO: 132 (peptide)
peptide: H-M[αMeW]ILICFWG-OH
B5: SEQ ID NO: 204 (peptide)
peptide: KWGLISAWD
HELM: PEPTIDE1{K.W.[O=C([C@@H](N[*:1])C1CCCCC1)[*:2]].L.I.S.A.W.D}$PEPTIDE1,PEPTIDE1,1:R3-9:R3$$$V2.0
SMILES: CC[C@H](C)[C@@H]1NC(=O)[C@H](CC(C)C)NC(=O)[C@H](C2CCCCC2)NC(=O)[C@H](Cc2c[nH]c3ccccc23)NC(=O)[C@@H](N)CCCCNC(=O)C[C@@H](C(=O)O)NC(=O)[C@H](Cc2c[nH]c3ccccc23)NC(=O)[C@H](C)NC(=O)[C@H](CO)NC1=O
B6: SEQ ID NO: 165 (peptide)
peptide: Ac-MWILISFWG-OH
B7: SEQ ID NO: 217 (peptide)
peptide: MWGLISFWG
HELM: PEPTIDE1{[ac].M.W.[O=C([C@@H](N[*:1])C1CCCCC1)[*:2]].L.I.S.F.W.G}$$$$V2.0
SMILES: CC[C@H](C)[C@H](NC(=O)[C@H](CC(C)C)NC(=O)[C@@H](NC(=O)[C@H](Cc1c[nH]c2ccccc12)NC(=O)[C@H](CCSC)NC(C)=O)C1CCCCC1)C(=O)N[C@@H](CO)C(=O)N[C@@H](Cc1ccccc1)C(=O)N[C@@H](Cc1c[nH]c2ccccc12)C(=O)NCC(=O)O
notes: also called Hit 1
B8: SEQ ID NO: 214 (peptide)
peptide: H-MWFLI[Cys(Me)]FWG-OH
B9: SEQ ID NO: 209 (peptide)
peptide: H-AWFLISFWG-OH
B10: SEQ ID NO: 182 (peptide)
peptide: KWILISFWE
HELM: PEPTIDE1{K.W.I.L.I.S.F.W.E}$PEPTIDE1,PEPTIDE1,1:R3-9:R3$$$V2.0
SMILES: CC[C@H](C)[C@@H]1NC(=O)[C@H](CC(C)C)NC(=O)[C@H]([C@@H](C)CC)NC(=O)[C@H](Cc2c[nH]c3ccccc23)NC(=O)[C@@H](N)CCCCNC(=O)CC[C@@H](C(=O)O)NC(=O)[C@H](Cc2c[nH]c3ccccc23)NC(=O)[C@H](Cc2ccccc2)NC(=O)[C@H](CO)NC1=O
B11: SEQ ID NO: 131 (peptide)
peptide: H-MW[αMeF]LICFWG-OH
B12: SEQ ID NO: 136 (peptide)
peptide: H-MWILI[αMeS]FWG-OH
B13: SEQ ID NO: 148 (peptide)
peptide: H-MWFLIC[2Pal]WG-OH
B14: SEQ ID NO: 191 (peptide)
peptide: MWFLICAWD
HELM: PEPTIDE1{[O=C(CCCN[*:1])[*:2]].M.W.F.L.I.C.A.W.D}$PEPTIDE1,PEPTIDE1,1:R1-10:R3$$$V2.0
SMILES: CC[C@H](C)[C@@H]1NC(=O)[C@H](CC(C)C)NC(=O)[C@H](Cc2ccccc2)NC(=O)[C@H](Cc2c[nH]c3ccccc23)NC(=O)[C@H](CCSC)NC(=O)CCCNC(=O)C[C@@H](C(=O)O)NC(=O)[C@H](Cc2c[nH]c3ccccc23)NC(=O)[C@H](C)NC(=O)[C@H](CS)NC1=O
B15: SEQ ID NO: 142 (peptide)
peptide: H-DWFLICFWG-OH
B16: SEQ ID NO: 198 (peptide)
peptide: Ac-MWFLICFWG-OH
B17: SEQ ID NO: 129 (peptide)
peptide: H-MWILISSWG-OH
B18: SEQ ID NO: 151 (peptide)
peptide: H-MWFLIKFYG-OH
B19: SEQ ID NO: 185 (peptide)
peptide: KWFLICFWE
HELM: PEPTIDE1{[ac].K.W.F.L.I.C.F.W.E}$PEPTIDE1,PEPTIDE1,2:R3-10:R3$$$V2.0
SMILES: CC[C@H](C)[C@@H]1NC(=O)[C@H](CC(C)C)NC(=O)[C@H](Cc2ccccc2)NC(=O)[C@H](Cc2c[nH]c3ccccc23)NC(=O)[C@@H](NC(C)=O)CCCCNC(=O)CC[C@@H](C(=O)O)NC(=O)[C@H](Cc2c[nH]c3ccccc23)NC(=O)[C@H](Cc2ccccc2)NC(=O)[C@H](CS)NC1=O
B20: SEQ ID NO: 216 (peptide)
peptide: MWALISFWG
HELM: PEPTIDE1{[ac].M.W.[Cha].L.I.S.F.W.G}$$$$V2.0
SMILES: CC[C@H](C)[C@H](NC(=O)[C@H](CC(C)C)NC(=O)[C@H](CC1CCCCC1)NC(=O)[C@H](Cc1c[nH]c2ccccc12)NC(=O)[C@H](CCSC)NC(C)=O)C(=O)N[C@@H](CO)C(=O)N[C@@H](Cc1ccccc1)C(=O)N[C@@H](Cc1c[nH]c2ccccc12)C(=O)NCC(=O)O
B21: SEQ ID NO: 199 (peptide)
peptide: KWFLISFWE
HELM: PEPTIDE1{[ac].K.W.F.L.I.S.F.W.E}$PEPTIDE1,PEPTIDE1,2:R3-10:R3$$$V2.0
SMILES: CC[C@H](C)[C@@H]1NC(=O)[C@H](CC(C)C)NC(=O)[C@H](Cc2ccccc2)NC(=O)[C@H](Cc2c[nH]c3ccccc23)NC(=O)[C@@H](NC(C)=O)CCCCNC(=O)CC[C@@H](C(=O)O)NC(=O)[C@H](Cc2c[nH]c3ccccc23)NC(=O)[C@H](Cc2ccccc2)NC(=O)[C@H](CO)NC1=O
B22: SEQ ID NO: 137 (peptide)
peptide: H-MWILI[dT]FWG-OH
B23: SEQ ID NO: 212 (peptide)
peptide: H-MWFLIAAWG-OH
B24: SEQ ID NO: 184 (peptide)
peptide: KWILISAWE
HELM: PEPTIDE1{K.W.I.L.I.S.A.W.E}$PEPTIDE1,PEPTIDE1,1:R3-9:R3$$$V2.0
SMILES: CC[C@H](C)[C@@H]1NC(=O)[C@H](CC(C)C)NC(=O)[C@H]([C@@H](C)CC)NC(=O)[C@H](Cc2c[nH]c3ccccc23)NC(=O)[C@@H](N)CCCCNC(=O)CC[C@@H](C(=O)O)NC(=O)[C@H](Cc2c[nH]c3ccccc23)NC(=O)[C@H](C)NC(=O)[C@H](CO)NC1=O
B25: SEQ ID NO: 164 (peptide)
peptide: LWFLICFWG
HELM: PEPTIDE1{[Nle].W.F.L.I.C.F.W.G}$$$$V2.0
SMILES: CCCC[C@H](N)C(=O)N[C@@H](Cc1c[nH]c2ccccc12)C(=O)N[C@@H](Cc1ccccc1)C(=O)N[C@@H](CC(C)C)C(=O)N[C@H](C(=O)N[C@@H](CS)C(=O)N[C@@H](Cc1ccccc1)C(=O)N[C@@H](Cc1c[nH]c2ccccc12)C(=O)NCC(=O)O)[C@@H](C)CC
B26: SEQ ID NO: 149 (peptide)
peptide: H-MWFLIQFYG-OH

The target in the first test is T1, β-catenin (UniProt P35222 134-665, limits assumed, biotinylated in the SPR and plate assays).
T1 construct: also called beta catenin; biotinylated β-catenin
T1 sequence (looked up): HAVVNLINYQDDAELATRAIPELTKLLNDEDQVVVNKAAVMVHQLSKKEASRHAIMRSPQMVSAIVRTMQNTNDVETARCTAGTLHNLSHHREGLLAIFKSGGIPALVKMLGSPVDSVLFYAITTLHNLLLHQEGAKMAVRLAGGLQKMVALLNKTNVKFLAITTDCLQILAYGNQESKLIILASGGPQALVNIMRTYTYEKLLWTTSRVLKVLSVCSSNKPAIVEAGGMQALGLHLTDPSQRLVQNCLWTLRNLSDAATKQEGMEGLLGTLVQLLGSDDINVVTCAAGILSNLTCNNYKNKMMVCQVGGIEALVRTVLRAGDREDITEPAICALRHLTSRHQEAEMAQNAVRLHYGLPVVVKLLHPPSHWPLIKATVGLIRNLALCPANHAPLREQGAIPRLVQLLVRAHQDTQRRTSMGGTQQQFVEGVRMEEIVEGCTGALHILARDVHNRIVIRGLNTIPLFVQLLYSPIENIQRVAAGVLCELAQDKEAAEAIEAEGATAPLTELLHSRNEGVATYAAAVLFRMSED
Nature of the test: competitive FP. Summed up:
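Competitive fluorescence polarization with inhibitor peptide serially diluted from 10 nM to 30 uM; polarization read at 470 nm excitation, 520 nm emission. Experiments performed three times.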
The Kd is the constant that tells how readily two partners part at equilibrium. For the molecule B1, the Kd is > 400 nM and ≤ 1000 nM.
The same measure, in the same setting: the figure for B2 is > 400 nM and ≤ 1000 nM; for B3 it is > 10000 nM and ≤ 30000 nM; for B4 it is at most 400 nM.
Same read-out and setting: the figure for B5 is > 400 nM and ≤ 1000 nM; for B6 it is at most 400 nM.
Same read-out and setting: next, B7: at most 400 nM.
B8: the Kd was > 400 nM and ≤ 1000 nM.
Turning to B9, the Kd is > 400 nM and ≤ 1000 nM.
The same measure, in the same setting: next, B10: > 400 nM and ≤ 1000 nM; B11: at most 400 nM; B12: > 400 nM and ≤ 1000 nM.
With B13, the Kd was > 400 nM and ≤ 1000 nM.
Same read-out and setting: next, B14: > 400 nM and ≤ 1000 nM.
Still for that read-out and setting: next, B15: at most 400 nM; B16: > 400 nM and ≤ 1000 nM; B17: > 400 nM and ≤ 1000 nM.
B18: the Kd was > 400 nM and ≤ 1000 nM.
Same read-out and setting: next, B19: at most 400 nM; B20: > 400 nM and ≤ 1000 nM.
Same read-out and setting: next, B21: > 400 nM and ≤ 1000 nM; B22: > 400 nM and ≤ 1000 nM.
The same measure, in the same setting: the figure for B23 is > 400 nM and ≤ 1000 nM; for B24 it is > 10000 nM and ≤ 30000 nM; for B25 it is > 400 nM and ≤ 1000 nM.
On to B26, for which the Kd was > 400 nM and ≤ 1000 nM.

Another test addresses T1, β-catenin. Nature of the test: cell-based or functional assay.
As to B1, the “Wnt Reporter EC50” value is > 7500 nM and ≤ 15000 nM.
On the same count and under the same terms, the figure for B2 is at most 7500 nM; for B3 it is at most 7500 nM.
Same read-out and setting: next, B4: > 7500 nM and ≤ 15000 nM.
The same measure, in the same setting: next, B5: at most 7500 nM; B6: at most 7500 nM; B7: at most 7500 nM.
In the case of B8, the “Wnt Reporter EC50” value is at most 7500 nM.
On the same count and under the same terms, next, B9: at most 7500 nM; B10: > 22500 nM and ≤ 30000 nM; B11: > 7500 nM and ≤ 15000 nM.
On the same count and under the same terms, the figure for B12 is above 30000 nM.
Same read-out and setting: next, B13: > 7500 nM and ≤ 15000 nM.
For the molecule B14, the “Wnt Reporter EC50” value was > 7500 nM and ≤ 15000 nM.
Turning to B15, the “Wnt Reporter EC50” value is at most 7500 nM.
Same read-out and setting: next, B16: at most 7500 nM; B17: at most 7500 nM.
The same measure, in the same setting: next, B18: > 15000 nM and ≤ 22500 nM; B19: > 22500 nM and ≤ 30000 nM.
The same measure, in the same setting: the figure for B20 is at most 7500 nM.
In the case of B21, the “Wnt Reporter EC50” value is at most 7500 nM.
Same read-out and setting: next, B22: > 15000 nM and ≤ 22500 nM; B23: at most 7500 nM; B24: at most 7500 nM.
The same measure, in the same setting: next, B25: at most 7500 nM; B26: > 7500 nM and ≤ 15000 nM.
